Test results as given in the supplement of paper PMC10567573.

B1: NEK8 (parent)
chain: VVGTPCYISPELCEGKPYNQKSDI

Variants of: B1
Experiment: protein stability index of a GFP-peptide fusion (GPS, HEK-293T) (PSI 1-6); higher = more stable
Conditions: c terminus: a fixed tail appended
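Also: lentivirally expressed fusions sorted by FACS into six bins by GFP to DsRed ratio, PSI derived from sequencing read proportions per bin multiplied by bin number.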

Variant	protein stability index
VVGTPCWISPELCEGKPYNQKSDI [Y7W]	2.82
VVGTPCNISPELCEGKPYNQKSDI [Y7N]	4.52
VVGTPCFISPELCEGKPYNQKSDI [Y7F]	3.05
VVGTPCLISPELCEGKPYNQKSDI [Y7L]	3.83
VVGTPCVISPELCEGKPYNQKSDI [Y7V]	4.04
VVGTPCGISPELCEGKPYNQKSDI [Y7G]	3.98
VVGTPCAISPELCEGKPYNQKSDI [Y7A]	3.94
VVGTPCDISPELCEGKPYNQKSDI [Y7D]	4.69
VVGTPCIISPELCEGKPYNQKSDI [Y7I]	4.08
VVGTPCMISPELCEGKPYNQKSDI [Y7M]	3.97
VVGTPCKISPELCEGKPYNQKSDI [Y7K]	3.92
VVGTPCPISPELCEGKPYNQKSDI [Y7P]	4.16
VVGTPCSISPELCEGKPYNQKSDI [Y7S]	3.69
VVGTPCEISPELCEGKPYNQKSDI [Y7E]	4.5
VVGTPCCISPELCEGKPYNQKSDI [Y7C]	4.16
VVGTPCHISPELCEGKPYNQKSDI [Y7H]	3.87
VVGTPCQISPELCEGKPYNQKSDI [Y7Q]	4.35
VVGTPCTISPELCEGKPYNQKSDI [Y7T]	4.36
VVGTPCRISPELCEGKPYNQKSDI [Y7R]	3.96
VVGTPCYVSPELCEGKPYNQKSDI [I8V]	4.03
VVGTPCYYSPELCEGKPYNQKSDI [I8Y]	2.31
VVGTPCYTSPELCEGKPYNQKSDI [I8T]	3.77
VVGTPCYLSPELCEGKPYNQKSDI [I8L]	3.48
VVGTPCYMSPELCEGKPYNQKSDI [I8M]	2.89

Variant	protein stability index
VVGTPCYNSPELCEGKPYNQKSDI [I8N]	4.4
VVGTPCYASPELCEGKPYNQKSDI [I8A]	4.4
VVGTPCYPSPELCEGKPYNQKSDI [I8P]	4.29
VVGTPCYKSPELCEGKPYNQKSDI [I8K]	4.14
VVGTPCYGSPELCEGKPYNQKSDI [I8G]	4.42
VVGTPCYWSPELCEGKPYNQKSDI [I8W]	2.27
VVGTPCYRSPELCEGKPYNQKSDI [I8R]	3.7
VVGTPCYESPELCEGKPYNQKSDI [I8E]	4.5
VVGTPCYCSPELCEGKPYNQKSDI [I8C]	3.05
VVGTPCYQSPELCEGKPYNQKSDI [I8Q]	4.42
VVGTPCYDSPELCEGKPYNQKSDI [I8D]	4.18
VVGTPCYSSPELCEGKPYNQKSDI [I8S]	3.98
VVGTPCYHSPELCEGKPYNQKSDI [I8H]	3.2
VVGTPCYFSPELCEGKPYNQKSDI [I8F]	2.9
VVGTPCYISPMLCEGKPYNQKSDI [E11M]	2.32
VVGTPCYISPNLCEGKPYNQKSDI [E11N]	2.66
VVGTPCYISPWLCEGKPYNQKSDI [E11W]	1.08
VVGTPCYISPRLCEGKPYNQKSDI [E11R]	2.49
VVGTPCYISPYLCEGKPYNQKSDI [E11Y]	2.05
VVGTPCYISPVLCEGKPYNQKSDI [E11V]	1.59
VVGTPCYISPCLCEGKPYNQKSDI [E11C]	1.68
VVGTPCYISPTLCEGKPYNQKSDI [E11T]	2.48
VVGTPCYISPPLCEGKPYNQKSDI [E11P]	1.76
VVGTPCYISPFLCEGKPYNQKSDI [E11F]	1.5

Variant	protein stability index
VVGTPCYISPILCEGKPYNQKSDI [E11I]	2.52
VVGTPCYISPALCEGKPYNQKSDI [E11A]	2.68
VVGTPCYISPLLCEGKPYNQKSDI [E11L]	1.8
VVGTPCYISPGLCEGKPYNQKSDI [E11G]	2.54
VVGTPCYISPQLCEGKPYNQKSDI [E11Q]	2.31
VVGTPCYISPSLCEGKPYNQKSDI [E11S]	2.7
VVGTPCYISPHLCEGKPYNQKSDI [E11H]	2.03
VVGTPCYISPKLCEGKPYNQKSDI [E11K]	2.74
VVGTPCYISPDLCEGKPYNQKSDI [E11D]	3.16
VVGTPCYISPELAEGKPYNQKSDI [C13A]	2.71
VVGTPCYISPELPEGKPYNQKSDI [C13P]	2.3
VVGTPCYISPELNEGKPYNQKSDI [C13N]	3.23
VVGTPCYISPELHEGKPYNQKSDI [C13H]	2.92
VVGTPCYISPELEEGKPYNQKSDI [C13E]	2.98
VVGTPCYISPELKEGKPYNQKSDI [C13K]	3.38
VVGTPCYISPELSEGKPYNQKSDI [C13S]	2.9
VVGTPCYISPELLEGKPYNQKSDI [C13L]	2.88
VVGTPCYISPELGEGKPYNQKSDI [C13G]	3.08
VVGTPCYISPELMEGKPYNQKSDI [C13M]	2.79
VVGTPCYISPELREGKPYNQKSDI [C13R]	3.27
VVGTPCYISPELIEGKPYNQKSDI [C13I]	2.48
VVGTPCYISPELYEGKPYNQKSDI [C13Y]	2.79
VVGTPCYISPELWEGKPYNQKSDI [C13W]	1.92
VVGTPCYISPELFEGKPYNQKSDI [C13F]	2.19

Variant	protein stability index
VVGTPCYISPELTEGKPYNQKSDI [C13T]	2.94
VVGTPCYISPELDEGKPYNQKSDI [C13D]	3.34
VVGTPCYISPELVEGKPYNQKSDI [C13V]	2.95
VVGTPCYISPELQEGKPYNQKSDI [C13Q]	2.79
VVGSPCYISPELCEGKPYNQKSDI [T4S]	3.68
VVGVPCYISPELCEGKPYNQKSDI [T4V]	1.99
VVGHPCYISPELCEGKPYNQKSDI [T4H]	3.02
VVGGPCYISPELCEGKPYNQKSDI [T4G]	3.34
VVGLPCYISPELCEGKPYNQKSDI [T4L]	2.39
VVGWPCYISPELCEGKPYNQKSDI [T4W]	2.13
VVGQPCYISPELCEGKPYNQKSDI [T4Q]	4.19
VVGYPCYISPELCEGKPYNQKSDI [T4Y]	2.25
VVGNPCYISPELCEGKPYNQKSDI [T4N]	3.87
VVGRPCYISPELCEGKPYNQKSDI [T4R]	2.79
VVGPPCYISPELCEGKPYNQKSDI [T4P]	3.46
VVGKPCYISPELCEGKPYNQKSDI [T4K]	3.45
VVGMPCYISPELCEGKPYNQKSDI [T4M]	2.78
VVGIPCYISPELCEGKPYNQKSDI [T4I]	1.75
VVGTPCYINPELCEGKPYNQKSDI [S9N]	2.31
VVGTPCYIRPELCEGKPYNQKSDI [S9R]	2.48
VVGTPCYIQPELCEGKPYNQKSDI [S9Q]	2.62
VVGTPCYIMPELCEGKPYNQKSDI [S9M]	2.4
VVGTPCYILPELCEGKPYNQKSDI [S9L]	1.68
VVGTPCYIEPELCEGKPYNQKSDI [S9E]	3.16

Variant	protein stability index
VVGTPCYIDPELCEGKPYNQKSDI [S9D]	3.44
VVGTPCYIFPELCEGKPYNQKSDI [S9F]	1.96
VVGTPCYIGPELCEGKPYNQKSDI [S9G]	2.99
VVGTPCYIAPELCEGKPYNQKSDI [S9A]	2.45
VVGTPCYIKPELCEGKPYNQKSDI [S9K]	3.61
VVGTPCYICPELCEGKPYNQKSDI [S9C]	1.94
VVGTPCYIVPELCEGKPYNQKSDI [S9V]	2.31
VVGTPCYIPPELCEGKPYNQKSDI [S9P]	3.58
VVGTPCYIWPELCEGKPYNQKSDI [S9W]	2.25
VVGTPCYITPELCEGKPYNQKSDI [S9T]	2.61
VVGTPCYIIPELCEGKPYNQKSDI [S9I]	2.32
VVGTPCYIYPELCEGKPYNQKSDI [S9Y]	1.55
VVGTPCYIHPELCEGKPYNQKSDI [S9H]	2.04
VVGTPYYISPELCEGKPYNQKSDI [C6Y]	2.02
VVGTPPYISPELCEGKPYNQKSDI [C6P]	3.38
VVGTPRYISPELCEGKPYNQKSDI [C6R]	3.88
VVGTPQYISPELCEGKPYNQKSDI [C6Q]	4.11
VVGTPHYISPELCEGKPYNQKSDI [C6H]	2.47
VVGTPWYISPELCEGKPYNQKSDI [C6W]	2.5
VVGTPVYISPELCEGKPYNQKSDI [C6V]	2.71
VVGTPSYISPELCEGKPYNQKSDI [C6S]	3.08
VVGTPGYISPELCEGKPYNQKSDI [C6G]	3.39
VVGTPFYISPELCEGKPYNQKSDI [C6F]	2.14
VVGTPAYISPELCEGKPYNQKSDI [C6A]	2.81

Variant	protein stability index
VVGTPDYISPELCEGKPYNQKSDI [C6D]	4.4
VVGTPMYISPELCEGKPYNQKSDI [C6M]	3.56
VVGTPTYISPELCEGKPYNQKSDI [C6T]	3.26
VVGTPEYISPELCEGKPYNQKSDI [C6E]	4.34
VVGTPLYISPELCEGKPYNQKSDI [C6L]	3.25
VVGTPIYISPELCEGKPYNQKSDI [C6I]	3.07
VVGTPNYISPELCEGKPYNQKSDI [C6N]	2.38
VVGTPKYISPELCEGKPYNQKSDI [C6K]	3.48
VVGTPCYISLELCEGKPYNQKSDI [P10L]	2.01
VVGTPCYISEELCEGKPYNQKSDI [P10E]	3.6
VVGTPCYISAELCEGKPYNQKSDI [P10A]	2.96
VVGTPCYISHELCEGKPYNQKSDI [P10H]	3.66
VVGTPCYISVELCEGKPYNQKSDI [P10V]	1.75
VVGTPCYISCELCEGKPYNQKSDI [P10C]	2.22
VVGTPCYISMELCEGKPYNQKSDI [P10M]	2.24
VVGTPCYISTELCEGKPYNQKSDI [P10T]	2.74
VVGTPCYISYELCEGKPYNQKSDI [P10Y]	1.91
VVGTPCYISGELCEGKPYNQKSDI [P10G]	3.56
VVGTPCYISRELCEGKPYNQKSDI [P10R]	2.98
VVGTPCYISSELCEGKPYNQKSDI [P10S]	3.39
VVGTPCYISIELCEGKPYNQKSDI [P10I]	1.49
VVGTPCYISKELCEGKPYNQKSDI [P10K]	3.56
VVGTPCYISDELCEGKPYNQKSDI [P10D]	3.23
VVGTPCYISQELCEGKPYNQKSDI [P10Q]	3.49

Variant	protein stability index
VVGTPCYISFELCEGKPYNQKSDI [P10F]	2.03
VVGTPCYISWELCEGKPYNQKSDI [P10W]	1.9
VVGTPCYISNELCEGKPYNQKSDI [P10N]	3.44
VVGTPCYISPELCDGKPYNQKSDI [E14D]	2.45
VVGTPCYISPELCCGKPYNQKSDI [E14C]	2.73
VVGTPCYISPELCAGKPYNQKSDI [E14A]	2.49
VVGTPCYISPERCEGKPYNQKSDI [L12R]	3.35
VVGTPCYISPEDCEGKPYNQKSDI [L12D]	3.4
VVGTPCYISPEYCEGKPYNQKSDI [L12Y]	2.27
VVGTPCYISPEVCEGKPYNQKSDI [L12V]	2.83
VVGTPCYISPEMCEGKPYNQKSDI [L12M]	2.76
VVGTPCYISPEFCEGKPYNQKSDI [L12F]	2.15
VVGTPCYISPEACEGKPYNQKSDI [L12A]	3.1
VVGTPCYISPESCEGKPYNQKSDI [L12S]	3.15
VVGTPCYISPEHCEGKPYNQKSDI [L12H]	3.59
VVGTPCYISPEPCEGKPYNQKSDI [L12P]	3.6
VVGTPCYISPEQCEGKPYNQKSDI [L12Q]	2.71
VVGTPCYISPEGCEGKPYNQKSDI [L12G]	4.29
VVGTPCYISPECCEGKPYNQKSDI [L12C]	3.29
VVGTPCYISPENCEGKPYNQKSDI [L12N]	3.62
VVGTPCYISPEICEGKPYNQKSDI [L12I]	2.93
VVGTPCYISPEKCEGKPYNQKSDI [L12K]	3.69
VVGTPCYISPEECEGKPYNQKSDI [L12E]	4.11
VVGTPCYISPETCEGKPYNQKSDI [L12T]	3.15

Variant	protein stability index
VVGTPCYISPEWCEGKPYNQKSDI [L12W]	1.83
VVGTVCYISPELCEGKPYNQKSDI [P5V]	1.89
VVGTRCYISPELCEGKPYNQKSDI [P5R]	2.76
VVGTSCYISPELCEGKPYNQKSDI [P5S]	3.36
VVGTCCYISPELCEGKPYNQKSDI [P5C]	2.56
VVGTWCYISPELCEGKPYNQKSDI [P5W]	1.66
VVGTDCYISPELCEGKPYNQKSDI [P5D]	2.98
VVGTKCYISPELCEGKPYNQKSDI [P5K]	3.18
VVGTECYISPELCEGKPYNQKSDI [P5E]	3.53
VVGTHCYISPELCEGKPYNQKSDI [P5H]	3.14
VVGTQCYISPELCEGKPYNQKSDI [P5Q]	3.62
VVGTTCYISPELCEGKPYNQKSDI [P5T]	3.32
VVGTMCYISPELCEGKPYNQKSDI [P5M]	2.75
VVGTFCYISPELCEGKPYNQKSDI [P5F]	1.16
VVGTACYISPELCEGKPYNQKSDI [P5A]	3.05
VVGTLCYISPELCEGKPYNQKSDI [P5L]	2.28
VVGTGCYISPELCEGKPYNQKSDI [P5G]	3.27
VVGTNCYISPELCEGKPYNQKSDI [P5N]	3.21
VVGTYCYISPELCEGKPYNQKSDI [P5Y]	2.06
VVGTICYISPELCEGKPYNQKSDI [P5I]	1.64
